# Measured values reported in the nanobody polyreactivity screen of Harvey et al. (2022).
# Assay: yeast display, Sf9 membrane polyspecificity reagent, FACS + sequencing; frameworks hold sequencing errors
# Outline: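 Polyreactivity labels are assigned by the sorting gate from which each nanobody was recovered. The gates were low and high (top ~1%), set on anti-HA fluorescence for expression and streptavidin fluorescence for reagent binding. Before sorting, galactose-induced (36–48 hours) yeast display cells were stained for 1 hour at 4 °C with 10% biotinylated, detergent-solubilized Sf9 membrane reagent.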
row,Sequence,polyreactivity (PSR sort gate)
1,QVQLVESGGGLVQAGGSLRLSCAASGLIFRGYAMGWYRQAPGKERELVAAISTTGGSTFYADSVKGRFTISRDNAKNTVYLQMNSLKREDTAVYYCNADWAPTGFSGGYPYDYWGQGTQVTVSS,high polyreactivity
2,QVQLVESGGGLVQAGGSLRLSCAASGLIFRGYAMGWYRQAPGKERELVAVISSSGGITRYADSVKGRFTISRDNAKNTVYLQMNSLKPEDTAVSYCATDRAERTGYTRYVKTYNYWGQGTQVTVSS,low polyreactivity
3,QVQLVESGGGLVQAGGSLRLSCAASGLIFRGYTMGWYRQAPGKEREFVAAITRRGTSTYYADSVKGRFTISRDNAKNTVYLQMNSLKPEDTAVYYCAARSVSGPRGYPYDYWGQGTQVTVSS,high polyreactivity
4,QVQLVESGGGLVQAGGSLRLSCAASGLIFRPYAMGWYRQAPGKERELVAALTSGGSTDYADSVKGRFTISRDNAKNTVYLQMNSLKPEDTAVYYCNADIYPHDGYPWQGDYDYWGQGTQVTVSS,low polyreactivity
5,QVQLVESGGGLVQAGGSLRLSCAASGLIFRRYAMGWYRQAPGKERELVAAISRTGGTTYYADSVKGRFTISRDTAKNTVYLQMNSLKPEDTAVYYCAAAGQGPDYDYWGQGTQVSVSS,high polyreactivity
6,QVQLVESGGGLVQAGGSLRLSCAASGLIFRRYVMGWYRQAPGKERELVAAITSRGTRTYYADSVKGRFTISRDNAKNTVYLQMNSLKPEDTAVYYCAADGGISAGANSGYDYWGQGTQVTVSS,high polyreactivity
7,QVQLVESGGGLVQAGGSLRLSCAASGLIFRVYAMGWYRQAPGKERELVAAITWSDGSTYYADSVKGRFTISRDNAKNTVYLQMNSLKPEDTAVYYCAAEFWYDWDYDYYYWGQGTQVTVSS,high polyreactivity
8,QVQLVESGGGLVQAGGSLRLSCAASGLIFRYNAMGWYRQAPGKERELVAAISRSGGTTYYADSVKGRFTISRDNAKNTVYLQMNSLKPEDTAVYYCATRISQSYYNYGYWGQGTQVTVSS,high polyreactivity
9,QVQLVESGGGLVQAGGSLRLSCAASGLIFRYNAMGWYRQAPGKERELVASITSDGSTNYADSVKGRFTISRDNAKNTVYLQMNSLKPEDTAVYYCAADGYTYCYYQLIPDYDYWGQGTQVTVSS,low polyreactivity
10,QVQLVESGGGLVQAGGSLRLSCAASGLIFRYYAKGWYRQGPGNEMELVAVISRRGDSTYYADSVKVRFTISRDNAKNTVYLQMISLKPEDTAVFYCAAEYFKRYKSYEYWGQGTQVTVSS,high polyreactivity
11,QVQLVESGGGLVQAGGSLRLSCAASGLIFRYYAMGWYRQAPGKERELVASISGSGGSTYYADSVKGRFTISRDNAKNTVYLQMNSLKPEDTAVYYCAATLAVYRRGPRYNYWGQGTQVTVSS,high polyreactivity
12,QVQLVESGGGLVQAGGSLRLSCAASGLIFRYYVMGWYRQAPGKERDFVASISYSGGRTYYADSVKGRFTISRDYAKNTVYLQMNRLKPEDTAVYYCAGGYYYHRYSYPGDYWGQGTQVTVSS,high polyreactivity
13,QVQLVESGGGLVQAGGSLRLSCAASGLIFSCNAMGWYRQAPGKERELVASISYSGGRTYYADSVKGRFTISRDNAKNTVYLQMNSLKPEDTAVYYCAADTNATTDPEMDYWGQGTQVTVSS,low polyreactivity
14,QVQLVESGGGLVQAGGSLRLSCAASGLIFSGYAMGWYRQAPGKDRELVAALTRRGSRTYYADSVKGRFTISRDNAKNTVYLQMNSLKPEDTAVYYCAADRFQGRDDYWGQGTQVTVSS,high polyreactivity
15,QVQLVESGGGLVQAGGSLRLSCAASGLIFSQNAMGWYRQAPGKERELVARITLSGTSTYYADSVKGRFTISRDNAKNTVYLQMISLKPEDTAVYYCNTRSYSYYVPYRYDYWGQGTQVTVSS,high polyreactivity
16,QVQLVESGGGLVQAGGSLRLSCAASGLIFSSYAMGWYRQAPGQERELVAAITGSGGRTYYADSVKGRFTISRDNAKNTVYLQMNSLKPEDTAVYYWNRRSRRQGGYWGQGTHVTVSS,high polyreactivity
17,QVQLVESGGGLVQAGGSLRLSCAASGLIFSWYAMGWYRQAPGKERELVAAITGSGGRTYYADSVKGRFTISRDNAKNTVYLQMNSLKPEDTAVYYCAALYTARYDYWGQGTQVTVSS,high polyreactivity
18,QVQLVESGGGLVQAGGSLRLSCAASGLIFSYYAMGWYIQAPGKERVLVAAISGVGSTNYADSVKGRFTISRDNEKNTVYLQMNSLKPEDTAVYYCAARFVLRRDYGYWGQGTQVTVSS,high polyreactivity
19,QVQLVESGGGLVQAGGSLRLSCAASGLIFSYYAMGWYRQAPGKERELVAAISRGGSTNYADSVKGRFTISRDNAKNTVNLQMNSLKPEDTAVYYFAAGRFAYHDDYWGQGTQVTVSS,high polyreactivity
20,QVQLVESGGGLVQAGGSLRLSCAASGLIFSYYAMGWYRQAPGKERELVAGITRSGASTYADSVKGRFTISRDNAKNTVYLQMNSLKPEDTAVYYCAADWHYLGWFWQYSKYDYWGQGTQVTVSS,high polyreactivity

row,Sequence,polyreactivity (PSR sort gate)
1,QVQLVESGGGLVQAGGSLRLSCAASGLIFTAYAMGWYRPAPGKERELVAAITGSGGRTYYADSVKGRFTISRDNALNSVYLQMNSLKAEDTAVYYCAADFPARGSSTYDYWGQGTQVTVSS,high polyreactivity
2,QVQLVESGGGLVQAGGSLRLSCAASGLIFTNYAMGWYRQAPGKERELVAGISTRGTSTYYADSVKGRFTISRDNAKNTVYLQMNSLKPEDTAVYYCAAVHRVVRAYDYWGQGTQVTVSS,high polyreactivity
3,QVQLVESGGGLVQAGGSLRLSCAASGLIFTSYAMGWYRQAPGKERELVAAISRGVRTYYADSVKGRFTISRDNAKNTVYLQMNSLKPEDTAVYYCAAAKPPPGKYDYWGQGTQVTVSS,high polyreactivity
4,QVQLVESGGGLVQAGGSLRLSCAASGLIFTVNAMGWYRQAPGKERELVAAISQSGGSTYYADSVKGRFTISRDNAKNTVYLQMNSLKPEDTAVYYCARGSWRHFRLYGFDYWGQGTQLTVSS,low polyreactivity
5,QVQLVESGGGLVQAGGSLRLSCAASGLIFTWNAMGWYRQAPGKERELVAAISTGGSTSYADSVKGRFTISRDNAKNTVYLQMNSLKPEDTAVYYCARDSSIWSHGSWYDYWGQGTQVTVSS,low polyreactivity
6,QVQLVESGGGLVQAGGSLRLSCAASGLIFTYYAMGWYRQAPGKERELVAGISSGTNTNYADSVKGRFTISRDNAKNTVYLQMNSLKPEDTALYYCATTRGYQFVAYGYWGQGTQVTVSS,low polyreactivity
7,QVQLVESGGGLVQAGGSLRLSCAASGLIFTYYAMGWYRQAPGKERELVAGISSGTNTNYADSVKGRFTISRDNAKNTVYLQMNSLKPEDTAVYYCAKTRGYQFVAYGYWGQGTQVTVSS,low polyreactivity
8,QVQLVESGGGLVQAGGSLRLSCAASGLIFTYYTMGWYRQEPGTERELVATINWNTSSTYYADSVKGRFTISRDNAKNTVYLQMNSLKPEDTAVYYCNKRIAESDTTVTYDYWGQGTQVTVSS,low polyreactivity
9,QVQLVESGGGLVQAGGSLRLSCAASGLIFVANAMGWYRQAPGKERELVAAISRSGGITTYADSVKGRFTISRDNAKNTVYLQMNSLKPEDTAVYYCAADTDPNPLIDYTLPMDYWGQGTQVTVSS,low polyreactivity
10,QVQLVESGGGLVQAGGSLRLSCAASGLIFVNNPMGWYRQAPGKERELVAAISWSTGGSTYYADSVKGRFTISRDNAKNSVYLQMNSLKPEDTAVYYCAAQYSYGEYWGYDYWGQGTQVTVSS,low polyreactivity
11,QVQLVESGGGLVQAGGSLRLSCAASGLIFVPYAMGWYRQAPGKERELVAAINSGATTYYADSVKGRFTISRDNAKNTVYLQMNSLKPEDTAVYYCNAEYPVYVYWFDYWGQGTQVTVSS,high polyreactivity
12,QVQLVESGGGLVQAGGSLRLSCAASGLIFVQNAMGWYRQAPGKEREFVAAISAGGTRTYYADSVKGRFTISRDNAKNTVYLQMNSVKPEDTAVYYCAAASGYDYWGQGTQGTVSS,high polyreactivity
13,QVQLVESGGGLVQAGGSLRLSCAASGLIFVQNAMGWYRQAPGKERELVAAISSRGTNTYYADSVKGRFTISRDNAKNTVYLQMNSLKPEDTAVYYCAKPLKTPRPNYDYWGQGTQVTVSS,low polyreactivity
14,QVQLVESGGGLVQAGGSLRLSCAASGLIFVSYAMGWYRQAPGKERELVAAISSGGSTYYADSVKGRFTISRDNAKNTVSLQMTSLKPEDTAVYYCNADGFYSWLYDYWGQGTQVTVSS,low polyreactivity
15,QVQLVESGGGLVQAGGSLRLSCAASGLIFWEYAMGWYRPAPGNERELVASITWGGGGTYYADSVKGRFTISRYNAKNTVNLHKNSLKPEDTAVYYSAVGPYYQSTQIYDYWGQGTQVTVSS,low polyreactivity
16,QVQLVESGGGLVQAGGSLRLSCAASGLIFWFYAMGWYRQAPGKERELVAAISGDGDSTYYADSVKGRFTISRDHAKNTVYLQMNSLKPEDTAVYYCAAEWDPVFATDEDDYWGQGTQVTVSS,low polyreactivity
17,QVQLVESGGGLVQAGGSLRLSCAASGLIFWYNAMGWDRQATGKEREFVAAITSDGGRTYYADSVKGRFTISRDNAKNTVYLQMNSLKTEDTAVYYCTARGYGYLGRKGGYSYGYYYWGQGTQVTVSS,low polyreactivity
18,QVQLVESGGGLVQAGGSLRLSCAASGLIFWYYAMGWYRQAPGTERELVASISSGGDTTYADSVKGRFTISRDNAKKTVYLQMNSLKPEDTAVYDCAAERYVRVWVAGILHYDYWGQGTQVTGSS,low polyreactivity
19,QVQLVESGGGLVQAGGSLRLSCAASGLIFYAYAMGWYRQAPGKERELVAAISYSGGSTYYADSVKGRFTISRDNAKNTVYLQMNSLKPEDTAVYYCAASYISVYWRWYEYWGQGTQVTVSS,high polyreactivity
20,QVQLVESGGGLVQAGGSLRLSCAASGLIFYDNMGGYRQAPGKERELVAAISSSGGSTSYADSVKGRFTISRDNAKNTVSLQMNSLNPEDSAVYYCTVSPGVWRSIPLYYNLLYGYWGQGTQVTVSS,low polyreactivity
